According to IntAct's records for PubMed 26290419:

B1: Kinesin-like protein KIF24 (Homo sapiens), Q5T7B8 (parent)
chain: MASWLYECLCEAELAQYYSHFTALGLQKIDELAKITMKDYSKLGVHDMNDRKRLFQLIKIIKIMQEEDKAVSIPERHLQTSSLRIKSQELRSGPRRQLNFDSPADNKDRNASNDGFEMCSLSDFSANEQKSTYLKVLEHMLPDDSQYHTKTGILNATAGDSYVQTEISTSLFSPNYLSAILGDCDIPIIQRISHVSGYNYGIPHSCIRQNTSEKQNPWTEMEKIRVCVRKRPLGMREVRRGEINIITVEDKETLLVHEKKEAVDLTQYILQHVFYFDEVFGEACTNQDVYMKTTHPLIQHIFNGGNATCFAYGQTGAGKTYTMIGTHENPGLYALAAKDIFRQLEVSQPRKHLFVWISFYEIYCGQLYDLLNRRKRLFAREDSKHMVQIVGLQELQVDSVELLLEVILKGSKERSTGATGVNADSSRSHAVIQIQIKDSAKRTFGRISFIDLAGSERAADARDSDRQTKMEGAEINQSLLALKECIRALDQEHTHTPFRQSKLTQVLKDSFIGNAKTCMIANISPSHVATEHTLNTLRYADRVKELKKGIKCCTSVTSRNRTSGNSSPKRIQSSPGALSEDKCSPKKVKLGFQQSLTVAAPGSTRGKVHPLTSHPPNIPFTSAPKVSGKRGGSRGSPSQEWVIHASPVKGTVRSGHVAKKKPEESAPLCSEKNRMGNKTVLGWESRASGPGEGLVRGKLSTKCKKVQTVQPVQKQLVSRVELSFGNAHHRAEYSQDSQRGTPARPASEAWTNIPPHQKEREEHLRFYHQQFQQPPLLQQKLKYQPLKRSLRQYRPPEGQLTNETPPLFHSYSENHDGAQVEELDDSDFSEDSFSHISSQRATKQRNTLENSEDSFFLHQTWGQGPEKQVAERQQSLFSSPRTGDKKDLTKSWVDSRDPINHRRAALDHSCSPSKGPVDWSRENSTSSGPSPRDSLAEKPYCSQVDFIYRQERGGGSSFDLRKDASQSEVSGENEGNLPSPEEDGFTISLSHVAVPGSPDQRDTVTTPLREVSADGPIQVTSTVKNGHAVPGEDPRGQLGTHAEYASGLMSPLTMSLLENPDNEGSPPSEQLVQDGATHSLVAESTGGPVVSHTVPSGDQEAALPVSSATRHLWLSSSPPDNKPGGDLPALSPSPIRQHPADKLPSREADLGEACQSRETVLFSHEHMGSEQYDADAEETGLDGSWGFPGKPFTTIHMGVPHSGPTLTPRTGSSDVADQLWAQERKHPTRLGWQEFGLSTDPIKLPCNSENVTWLKPRPISRCLARPSSPLVPSCSPKTAGTLRQPTLEQAQQVVIRAHQEQLDEMAELGFKEETLMSQLASNDFEDFVTQLDEIMVLKSKCIQSLRSQLQLYLTCHGPTAAPEGTVPS
partner: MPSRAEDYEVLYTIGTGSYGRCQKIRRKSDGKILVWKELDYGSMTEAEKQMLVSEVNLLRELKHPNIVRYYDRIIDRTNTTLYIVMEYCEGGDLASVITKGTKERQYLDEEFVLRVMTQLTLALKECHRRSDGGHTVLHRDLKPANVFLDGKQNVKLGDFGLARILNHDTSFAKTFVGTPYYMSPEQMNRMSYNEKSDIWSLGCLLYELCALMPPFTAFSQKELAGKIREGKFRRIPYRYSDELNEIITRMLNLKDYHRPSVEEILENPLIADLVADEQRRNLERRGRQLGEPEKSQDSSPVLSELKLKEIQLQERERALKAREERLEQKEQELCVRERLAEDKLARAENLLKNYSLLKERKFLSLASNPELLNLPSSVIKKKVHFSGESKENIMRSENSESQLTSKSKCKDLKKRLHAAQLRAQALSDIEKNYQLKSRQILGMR

Variants of: B1
Settings: with nek2_human NEK2, P51955

Variant	effect of a mutation on the interaction
T621A;S622A	decreasing interaction
